Two molecules from patent US7718391B2, “Assays for identifying modulators of rhomboid polypeptides” (Medical Research Council, priority 2001, dated 2010) can be followed below.

Series [1] has as its system zebrafish RHBDL2. Put plainly: Zebrafish RHBDL2 knockout by antisense morpholino injection into embryos. The format is in vivo, Zebrafish (Danio rerio). The note with it: injected into 1-4 cell embryos at 2-4 μM, assessed after 24 and 48 hours. On the procedure:
Knockout of the zebrafish RHBDL2 was performed by standard procedures (McClintock J M, Kheirbek M A, Prince V E. 2002. Development. 129, 2339-2354.). A morpholino antisense oligonucleotide ([…]) SEQ.ID. 7 complementary to the region of the cDNA surrounding the start of translation was injected into 1-4 cell embryos at 2-4 μM. After 24 and 48 hours the phenotype was assessed and compared with wild-type embryos of equivalent stages. In situ hybridisation to RHBDL2 was performed by standard techniques.
To investigate the role of vertebrate Rhomboids, the zebrafish homologue of human RHBDL2 (sequenced from cDNA clone 2652120, GenBank accession number AW422344) was knocked out using the standard technology of antisense morpholino oligonucleotides (reviewed in Heasman J. Dev Biol. Mar. 15, 2002;243(2):209-14), which allows the rapid removal of a gene function. Zebrafish embryos are a common model system as their embryonic development is easily observed.

Series [2] relates to release of TGFα. Put plainly: Release/secretion of TGFα from transfected COS cells. The conditions noted are these: expression of truncated Rhomboid-1, compared with control. It counts as cell-based, human. The procedure:
COS cells were grown in DMEM medium (supplemented with 10% foetal calf serum), and transfected with FuGENE 6 Transfection Reagent (Roche). Cells were transfected in 35 mm culture wells with 25-250 ng of each construct and empty plasmid to bring the total DNA to 1 μg per well. 24-30 hours post-transfection the medium was replaced with serum-free medium; this was harvested 24 hours later and cells were lysed in SDS-sample buffer. GFP was detected in conditioned medium and cell lysates by western blot with a rabbit polyclonal antibody. For some experiments the serum-free medium was supplemented with the metalloprotease inhibitor batimastat (British Biotech) or ilomostat (Calbiochem).
Spitz, Star and Rhomboid-1 are the only Drosophila proteins present in the transfected mammalian cells. A possible hypothesis is that these proteins are able to recruit a mammalian protease to a processing complex. If this were the case, the principle candidate for the putative mammalian protease would be a member of the ADAM family of metalloproteases. These proteases have broad specificity and are responsible for the release of a large number of mammalian growth factors, including the Spitz homolog, TGFα. The possible involvement of these proteases was tested with the potent metalloprotease inhibitor batimastat (British Biotechnology) at 1 μM and 10 μM. […]

In series [3] the target is T1, Rhomboid-1 (Drosophila melanogaster, UniProt P20350).
T1 construct: When co-expressed with Star and full-length Rhomboid-1 in the COS cell Spitz cleavage assay; expressed in transfected cells; host or cells: COS cells, pcDNA3.1 constructs, transient transfection
T1 sequence (P20350 1-355): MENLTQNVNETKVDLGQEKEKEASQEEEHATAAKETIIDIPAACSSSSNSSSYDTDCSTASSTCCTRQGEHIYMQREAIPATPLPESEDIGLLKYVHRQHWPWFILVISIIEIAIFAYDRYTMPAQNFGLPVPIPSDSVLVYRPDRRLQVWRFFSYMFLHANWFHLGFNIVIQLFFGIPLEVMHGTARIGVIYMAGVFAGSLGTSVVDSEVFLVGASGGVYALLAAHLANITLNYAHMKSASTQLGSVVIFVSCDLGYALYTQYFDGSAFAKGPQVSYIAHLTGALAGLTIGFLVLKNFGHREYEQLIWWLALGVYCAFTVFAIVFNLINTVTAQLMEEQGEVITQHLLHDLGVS
Kind of series: Rhomboid-1 and Star dependent cleavage of GFP-Spitz in transfected COS cells (western blot of medium). It counts as cell-based. The note with it: co-expressed with Star and full-length Rhomboid-1 in COS cells. On the procedure: COS cells were grown in DMEM medium (supplemented with 10% foetal calf serum), and transfected with FuGENE 6 Transfection Reagent (Roche). Cells were transfected in 35 mm culture wells with 25-250 ng of each construct and empty plasmid to bring the total DNA to 1 μg per well. 24-30 hours post-transfection the medium was replaced with serum-free medium; this was harvested 24 hours later and cells were lysed in SDS-sample buffer. GFP was detected in conditioned medium and cell lysates by western blot with a rabbit polyclonal antibody. For some experiments the serum-free medium was supplemented with the metalloprotease inhibitor batimastat (British Biotech) or ilomostat (Calbiochem). Cells were transfected as standard with 1 ng of Rhomboid-1 DNA (in 1 μg total DNA) and were then incubated in serum-free medium for 24 hours. The medium was then replaced with 0.5 ml serum free medium containing protease inhibitor at the indicated concentration and incubated for 1 hour. After 1 hour, the medium was collected, cleared by centrifugation, dialysed overnight against several changes of water and lyophilised. The resulting pellets were re-suspended in SDS sample buffer, boiled and analysed by Western blot. Transfections with a secreted form of Spitz were used in parallel to control for non-specific toxicity of the protease inhibitors or general inhibition of the secretory pathway. The proteolytic cleavage assay was recapitulated in a mammalian tissue culture system. Spitz was tagged with GFP near its N-terminus and transiently expressed in COS cells, in the presence or absence of Star and/or Rhomboid-1. The accumulation of the soluble extracellular fragment of GFP-Spitz in the cell medium was then measured by western blot.
Background: Immunoblotting shows a protein as a band on a membrane.

On to “anti-sense morpholino oligo TCTTGCTCTTCGGTGTCATTATCGC: morpholino antisense oligonucleotide complementary to the region of zebrafish RHBDL2 cDNA surrounding the start of translation (all phosphorodiamidate morpholino (PMO))”, for which, in series [1], the “embryo phenotype after knockout” value was “specific defects in the brain, the otic placode and the tail”.

B1: Rho-1-NTM1: residues 1 to 149 of Rhomboid-1: N-terminal cytoplasmic domain plus first TMD and part of first extracellular loop; dominant negative (protein, UniProt P20350 1-149, looked up, fragment)
chain: MENLTQNVNETKVDLGQEKEKEASQEEEHATAAKETIIDIPAACSSSSNSSSYDTDCSTASSTCCTRQGEHIYMQREAIPATPLPESEDIGLLKYVHRQHWPWFILVISIIEIAIFAYDRYTMPAQNFGLPVPIPSDSVLVYRPDRRLQ
With B1, the “TGFα synthesis or secretion” value in series [2] is recorded as “did not interfere”. Also, in series [3], the “ability of wild-type Rhomboid-1 to promote GFP-Spitz cleavage” value was “inhibited”.
